From article PMC7083938
Values joined by “and” are separate entries in the source; they are usually repeats but may differ in a detail not shown here. Equal entries are not always repeated. Where two headings read alike, the source gives them in different places. One block for each substance: values may come before it.

How the values were obtained:
[1] = target: NELL2, full length (Supplementary Fig. 9c; species not stated) (not stated (human or mouse cDNA cloned)) (UniProt Q99435); assay: non-reducing SDS-PAGE; NELL2 and NELL2ΔCC on non-reducing (-DTT) and reducing (+DTT) SDS-PAGE; size from ladder standards
[2] = target: full-ectodomain Robo surface (SPR with full-length NELL2 as analyte); assay: SPR; mRobo3 ECD (167 RU) and mRobo1^Robo3-FN1 ECD (177 RU) biotinylated with NHS-Biotin and captured on a Biacore Series S SA chip; full-length mNELL2 as analyte; 1:1 Langmuir isotherm with a linear nonspecific-binding term; regeneration with 10 mM EDTA
[3] = target: mRobo1Robo3-FN1 ECD chimera (mouse) (UniProt O89026); assay: SPR; mRobo3 ECD (167 RU) or mRobo1Robo3-FN1 ECD (177 RU), NHS-biotin, on a Biacore Series S SA chip; mNELL2 full length or mNELL2 EGF1-6 as analyte; regeneration with 10 mM EDTA; equilibrium, 1:1 model with a linear non-specific binding term
[4] = target: mRobo3 ectodomain (mouse); assay: as above
[5] = target: mNELL2 (full length) (mouse); assay: SEC-MALS; Superose 6 Increase 10/300 in HBS (10 mM HEPES pH 7.2, 150 mM NaCl), Wyatt HELEOS II
[6] = target: mRobo1 ectodomain (mouse) (UniProt O89026); assay: SPR; mRobo1 ectodomain on a CM5 chip by random amine coupling (~1,200 RU); mNELL2 as analyte; 25 °C, 10 mM HEPES pH 7.2, 150 mM NaCl, 0.05% Tween-20, 0.1% BSA; KD from equilibrium responses assuming 50 to 100% active surface
Chain of mRobo1 ectodomain (mouse) (O89026 30-840): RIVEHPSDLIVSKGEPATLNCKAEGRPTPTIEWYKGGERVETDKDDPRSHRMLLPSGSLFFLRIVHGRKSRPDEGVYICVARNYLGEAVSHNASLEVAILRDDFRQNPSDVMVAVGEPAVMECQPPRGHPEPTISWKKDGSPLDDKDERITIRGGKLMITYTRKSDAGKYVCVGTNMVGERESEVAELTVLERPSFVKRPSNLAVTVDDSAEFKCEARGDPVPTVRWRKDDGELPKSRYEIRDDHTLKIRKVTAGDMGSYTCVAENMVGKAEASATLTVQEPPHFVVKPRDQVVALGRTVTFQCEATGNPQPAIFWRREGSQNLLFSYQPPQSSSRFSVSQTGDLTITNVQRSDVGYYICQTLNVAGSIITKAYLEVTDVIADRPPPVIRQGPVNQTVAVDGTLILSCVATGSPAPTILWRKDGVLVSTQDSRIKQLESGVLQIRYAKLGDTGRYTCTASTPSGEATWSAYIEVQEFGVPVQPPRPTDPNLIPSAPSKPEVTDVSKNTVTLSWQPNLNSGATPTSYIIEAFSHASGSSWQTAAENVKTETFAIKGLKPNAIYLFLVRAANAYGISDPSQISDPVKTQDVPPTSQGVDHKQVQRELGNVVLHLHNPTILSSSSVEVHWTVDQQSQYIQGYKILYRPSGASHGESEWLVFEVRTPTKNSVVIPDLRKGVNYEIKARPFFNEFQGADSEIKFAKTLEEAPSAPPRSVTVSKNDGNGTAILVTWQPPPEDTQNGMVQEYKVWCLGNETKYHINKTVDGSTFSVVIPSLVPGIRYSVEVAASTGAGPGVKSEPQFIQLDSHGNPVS

[7] = target: mRobo1 ectodomain (mouse) (UniProt O89026); assay: as above; remark: listed apart in the source
mRobo3 FN1-3 (mouse) = assay: SPR; biotinylated mRobo3 FN1-3 on a Biacore SA chip; mNELL2 EGF1-6 WT and mutants as analytes over the same channel; 20 s 10 mM EDTA pH 8, 150 mM NaCl between runs; 25 °C, 10 mM HEPES pH 7.2, 150 mM NaCl, 0.05% Tween-20, 0.1% BSA; equilibrium, 1:1 Langmuir
mRobo1 FN1-3 (mouse) = mRobo1 FN1-3 (mouse) (UniProt O89026); assay: SPR; mRobo1 FN1-3 (NHS-biotin on the N-terminal amine, 315 RU) on a Biacore SA chip; mNELL2 EGF1-6 as analyte; 25 °C, 10 mM HEPES pH 7.2, 150 mM NaCl, 0.05% Tween-20, 0.1% BSA; 1:1 Langmuir
Chain of mRobo1 FN1-3 (mouse) (O89026 519-840): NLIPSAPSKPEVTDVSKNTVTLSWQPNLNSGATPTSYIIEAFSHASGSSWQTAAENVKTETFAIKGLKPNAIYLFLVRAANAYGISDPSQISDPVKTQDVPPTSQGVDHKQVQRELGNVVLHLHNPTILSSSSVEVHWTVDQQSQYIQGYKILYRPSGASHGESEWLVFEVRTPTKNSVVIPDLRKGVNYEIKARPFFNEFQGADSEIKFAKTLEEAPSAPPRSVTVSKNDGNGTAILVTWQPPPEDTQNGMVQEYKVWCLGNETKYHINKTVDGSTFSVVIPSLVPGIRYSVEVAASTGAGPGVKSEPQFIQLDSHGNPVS

mNELL2ΔCC (mouse) [8] = assay: SPR; mNELL2 or mNELL2ΔCC (100 RU each, NHS-biotin) on a Biacore Series S SA chip; mRobo3 ECD or mRobo3 FN1 as analyte; regeneration with 10 mM EDTA; equilibrium analysis
[9] = target: mNELL2 (full length) (mouse); assay: as above
[10] = target: mNELL2 (full length) (mouse); assay: SEC; mNELL2 with excess mRobo3 FN1 on Superose 6 10/300; complex fractions quantified by fluorescent anti-His western blot against 1:1 standards
mNELL2ΔCC (mouse) [11] = assay: SPR; mNELL2 or mNELL2ΔCC (100 RU each, NHS-biotin) on a Biacore Series S SA chip; mRobo3 ECD or mRobo3 FN1 as analyte; regeneration with 10 mM EDTA; equilibrium analysis; remark: listed apart in the source
[12] = target: biotinylated mouse Robo3 FN1–3 (Avi-tagged) (mouse) (UniProt Q9Z2I4); assay: SPR; biotinylated mRobo3 FN1–3 captured on an SA chip (Biacore); mNELL2 EGF1–6 WT and mutants as analyte; 25 °C, 10 mM HEPES pH 7.2, 150 mM NaCl, 0.05% Tween-20, 0.1% BSA; 1:1 Langmuir isotherm
Chain of biotinylated mouse Robo3 FN1–3 (Avi-tagged) (mouse) (Q9Z2I4 558-869): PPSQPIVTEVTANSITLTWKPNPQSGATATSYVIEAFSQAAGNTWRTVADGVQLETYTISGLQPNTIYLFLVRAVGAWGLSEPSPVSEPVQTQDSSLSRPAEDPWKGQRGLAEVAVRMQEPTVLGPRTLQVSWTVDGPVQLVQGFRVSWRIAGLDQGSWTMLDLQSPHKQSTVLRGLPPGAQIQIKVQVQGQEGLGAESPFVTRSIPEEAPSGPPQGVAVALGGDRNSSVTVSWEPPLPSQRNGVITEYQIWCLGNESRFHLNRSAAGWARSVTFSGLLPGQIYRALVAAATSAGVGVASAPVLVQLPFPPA

Chain of full-length mouse NELL2 (Q61220 25-819): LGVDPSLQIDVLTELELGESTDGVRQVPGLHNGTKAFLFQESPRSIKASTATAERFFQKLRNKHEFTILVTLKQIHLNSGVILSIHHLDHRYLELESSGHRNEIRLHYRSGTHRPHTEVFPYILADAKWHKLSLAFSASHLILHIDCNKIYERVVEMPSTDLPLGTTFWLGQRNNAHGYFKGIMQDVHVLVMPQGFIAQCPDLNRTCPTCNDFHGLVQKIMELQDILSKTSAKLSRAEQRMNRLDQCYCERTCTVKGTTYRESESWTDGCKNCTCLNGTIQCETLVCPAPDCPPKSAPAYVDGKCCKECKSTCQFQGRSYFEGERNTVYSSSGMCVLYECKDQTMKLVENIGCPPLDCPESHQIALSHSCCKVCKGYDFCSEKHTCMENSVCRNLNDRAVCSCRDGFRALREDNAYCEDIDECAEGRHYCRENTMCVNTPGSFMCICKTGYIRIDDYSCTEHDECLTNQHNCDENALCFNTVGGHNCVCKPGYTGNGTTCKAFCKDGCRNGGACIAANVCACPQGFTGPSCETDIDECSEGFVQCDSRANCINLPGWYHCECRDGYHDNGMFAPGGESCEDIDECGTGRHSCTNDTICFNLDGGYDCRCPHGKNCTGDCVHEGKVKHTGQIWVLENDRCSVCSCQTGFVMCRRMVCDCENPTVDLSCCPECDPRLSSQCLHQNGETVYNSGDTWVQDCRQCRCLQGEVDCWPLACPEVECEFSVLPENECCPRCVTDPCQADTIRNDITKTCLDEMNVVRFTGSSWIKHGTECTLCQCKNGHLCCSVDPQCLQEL

Kd (mRobo3 FN1-3 (mouse)): 87000 nM
Substance: mNELL2 EGF1-6 R448A/Y450A (domain or fragment)

Kd (mNELL2ΔCC (mouse) [8]): 720 nM
Kd [9]: 510 nM
stoichiometry N (mNELL2:mRobo3 FN1 (molar ratio)) [10]: 1.16
Kd (mNELL2ΔCC (mouse) [11]): 710 nM and 890 nM
Substance: mRobo3 FN1 (domain or fragment)

fold reduction of affinity against wild-type mNELL2 [12]: 120 fold
Substance: mouse NELL2 EGF1–6 R448A/Y450A (domain or fragment)

Kd [12]: 1700 nM
fold reduction of affinity against wild-type mNELL2 [12]: 2.4 fold
Substance: mouse NELL2 EGF1–6 R452A (domain or fragment)

Second part, the substance before the results:

Substance: NELL2, full length (Supplementary Fig. 9c; species not stated) (from UniProt Q99435 22-816) (ligand)
stoichiometry N [1]: 3

Substance: full-length mouse NELL2 (from UniProt Q61220 25-819) (ligand)
Kd [2]: 500 to 1000 nM

Substance: mNELL2 (full length) (ligand)
Kd [3]: 470 nM
Kd [4]: 940 nM
stoichiometry N [5]: 3
Kd [6]: > 100000 nM
Kd [7]: 350000 nM

Substance: mNELL2 EGF1-6 R452A (domain or fragment)
Kd (mRobo3 FN1-3 (mouse)): 1700 nM

Substance: mNELL2 EGF1-6 V509A (domain or fragment)
Kd (mRobo3 FN1-3 (mouse)): 1700 nM

Substance: mNELL2 EGF1-6 WT (domain or fragment)
Kd [3]: 1700 nM
Kd [4]: 1700 nM
Kd (mRobo3 FN1-3 (mouse)): 710 nM
Kd (mRobo1 FN1-3 (mouse)): 13800 nM

Substance: mRobo3 ectodomain (domain or fragment)
Kd (mNELL2ΔCC (mouse) [8]): 1800 nM
Kd [9]: 890 nM

Substance: mouse NELL2 EGF1–6 L498A/F500A (domain or fragment)
Kd [12]: > 100000 nM
fold reduction of affinity against wild-type mNELL2 [12]: 500 fold

Substance: mouse NELL2 EGF1–6 V509A (domain or fragment)
Kd [12]: 1700 nM
fold reduction of affinity against wild-type mNELL2 [12]: 2.4 fold
